Publication PMC10679507

Tests used:
Test in all cases: UV-vis
Settings in all cases: room temperature; 0.4 M NaCl; 6-mix buffer (citric acid 5.48 mM; ADA 1.84 mM; MOPS 4.16 mM; TAPS 5.00 mM; CHES 3.24 mM; CAPS 5.56 mM); dark (unphotolyzed) state, lipid-reconstituted
Glu10 = Glu10 (UniProt position 10, GNATFENYIGL)
Asp115 = Asp115 (UniProt position 115, LNWLIDVPMLL)
Asp250 = Asp250 (UniProt position 250, TYTIADVSSKV)

| Substance | pKa (Glu10) | pKa (Asp115) | pKa (Asp250) |
| --- | --- | --- | --- |
| Sodium pump rhodopsin IaNaR H225A (Indibacter alkaliphilus; H225A) | 4.3 | 5.8 | 3.0 |
| Sodium pump rhodopsin IaNaR E10Q/R242Q (Indibacter alkaliphilus; E10Q;R242Q) |  | 5.7 | 3.8 |
| Sodium pump rhodopsin IaNaR D115N (Indibacter alkaliphilus; D115N) | 4.6 |  | 2.5 |
| Sodium pump rhodopsin IaNaR (Indibacter alkaliphilus) | 4.1 | 5.5 | 3.2 |
| Sodium pump rhodopsin IaNaR E159A (Indibacter alkaliphilus; E159A) |  | 5.6 | 3.3 |
| Sodium pump rhodopsin IaNaR E159Q (Indibacter alkaliphilus; E159Q) | 3.7 |  | 3.1 |
| Sodium pump rhodopsin IaNaR E10Q/E159Q/R242Q (Indibacter alkaliphilus; E10Q;E159Q;R242Q) |  | 7.1 | 3.6 |
| Sodium pump rhodopsin IaNaR D250N (Indibacter alkaliphilus; D250N) | 2.8 | 5.0 |  |
| Sodium pump rhodopsin IaNaR R242Q (Indibacter alkaliphilus; R242Q) | 4.4 | 6.4 |  |
